Source: article PMC4434323

Key:
[1] = biological target: T1, C46E10.8 (C46E10.8) (Caenorhabditis elegans) (UniProt O44719)
T1 sequence: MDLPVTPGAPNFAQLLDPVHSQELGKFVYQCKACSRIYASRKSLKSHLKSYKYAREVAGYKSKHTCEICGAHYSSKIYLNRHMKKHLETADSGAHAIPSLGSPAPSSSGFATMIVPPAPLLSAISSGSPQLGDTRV

[2] = biological target: T2, pop-1 (W10C8.2) (Caenorhabditis elegans) (UniProt Q10666)
T2 sequence: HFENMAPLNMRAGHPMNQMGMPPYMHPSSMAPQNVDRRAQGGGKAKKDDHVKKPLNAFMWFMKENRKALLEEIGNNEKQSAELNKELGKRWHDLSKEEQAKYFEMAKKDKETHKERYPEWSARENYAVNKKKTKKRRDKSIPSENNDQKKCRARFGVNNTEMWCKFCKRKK

[3] = biological target: T3, atf-5 (T04C10.4) (Caenorhabditis elegans) (UniProt Q22156)
T3 sequence: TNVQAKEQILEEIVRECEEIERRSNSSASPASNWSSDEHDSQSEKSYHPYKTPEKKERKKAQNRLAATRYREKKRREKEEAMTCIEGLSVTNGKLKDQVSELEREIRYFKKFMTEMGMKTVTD

[4] = biological target: atf-7 (C07G2.2) (Caenorhabditis elegans) (UniProt Q86MD3)
Chain of atf-7 (C07G2.2) (Caenorhabditis elegans) (Q86MD3 339-508): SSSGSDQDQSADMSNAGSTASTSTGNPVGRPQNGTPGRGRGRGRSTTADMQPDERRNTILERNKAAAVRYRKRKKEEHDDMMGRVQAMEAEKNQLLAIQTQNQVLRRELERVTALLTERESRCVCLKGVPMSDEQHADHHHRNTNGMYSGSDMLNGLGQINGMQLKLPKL

[5] = biological target: T4, xbp-1 (R74.3) (Caenorhabditis elegans) (UniProt G5EE07)
T4 sequence: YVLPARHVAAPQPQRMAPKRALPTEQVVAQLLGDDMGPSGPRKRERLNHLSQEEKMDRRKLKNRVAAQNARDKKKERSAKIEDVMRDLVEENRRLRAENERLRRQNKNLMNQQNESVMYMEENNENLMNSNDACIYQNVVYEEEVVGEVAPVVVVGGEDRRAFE

[6] = biological target: T5, zip-3 (W07G1.3) (Caenorhabditis elegans) (UniProt Q9XUK2)
T5 sequence: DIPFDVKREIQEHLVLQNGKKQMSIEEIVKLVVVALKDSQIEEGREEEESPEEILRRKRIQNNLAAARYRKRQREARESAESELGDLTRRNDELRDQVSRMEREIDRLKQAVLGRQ

[7] = biological target: T6, D1005.3 (D1005.3) (Caenorhabditis elegans) (UniProt Q18909)
T6 sequence: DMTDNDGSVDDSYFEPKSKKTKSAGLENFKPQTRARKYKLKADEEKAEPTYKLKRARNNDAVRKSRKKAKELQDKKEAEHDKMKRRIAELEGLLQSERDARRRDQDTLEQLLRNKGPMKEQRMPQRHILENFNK

[8] = biological target: T7, T27F2.4 (T27F2.4) (Caenorhabditis elegans) (UniProt Q22835)
T7 sequence: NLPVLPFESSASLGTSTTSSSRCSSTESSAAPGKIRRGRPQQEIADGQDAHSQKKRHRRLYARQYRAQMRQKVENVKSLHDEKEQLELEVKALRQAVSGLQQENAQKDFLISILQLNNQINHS

[9] = biological target: T8, W08E12.1 (W08E12.1) (Caenorhabditis elegans) (UniProt Q9N5A8)
T8 sequence: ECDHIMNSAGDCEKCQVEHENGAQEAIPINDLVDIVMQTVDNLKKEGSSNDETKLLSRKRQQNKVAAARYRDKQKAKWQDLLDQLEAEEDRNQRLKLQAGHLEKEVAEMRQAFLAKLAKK

[10] = biological target: T9, F17A9.3 (F17A9.3) (Caenorhabditis elegans) (UniProt O16213)
T9 sequence: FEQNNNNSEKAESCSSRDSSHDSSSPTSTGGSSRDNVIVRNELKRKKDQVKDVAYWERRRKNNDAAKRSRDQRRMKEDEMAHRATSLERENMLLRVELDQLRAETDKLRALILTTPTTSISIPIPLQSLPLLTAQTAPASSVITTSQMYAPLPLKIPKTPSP

[11] = biological target: T10, T07C12.11 (T07C12.11) (Caenorhabditis elegans) (UniProt G5EGG9)
T10 sequence: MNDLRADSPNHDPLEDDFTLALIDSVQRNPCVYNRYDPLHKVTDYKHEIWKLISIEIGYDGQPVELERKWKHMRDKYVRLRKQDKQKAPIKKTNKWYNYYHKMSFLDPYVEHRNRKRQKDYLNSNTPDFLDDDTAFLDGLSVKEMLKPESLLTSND

[12] = biological target: T11, Y51H4A.4 (Y51H4A.4) (Caenorhabditis elegans) (UniProt Q9NAE4)
T11 sequence: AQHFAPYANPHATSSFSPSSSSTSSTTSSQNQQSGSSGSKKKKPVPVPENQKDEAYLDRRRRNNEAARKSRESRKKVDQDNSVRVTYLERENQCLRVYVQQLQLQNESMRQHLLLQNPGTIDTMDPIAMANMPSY

[13] = biological target: T12, atf-2 (K08F8.2) (Caenorhabditis elegans) (UniProt Q21361)
T12 sequence: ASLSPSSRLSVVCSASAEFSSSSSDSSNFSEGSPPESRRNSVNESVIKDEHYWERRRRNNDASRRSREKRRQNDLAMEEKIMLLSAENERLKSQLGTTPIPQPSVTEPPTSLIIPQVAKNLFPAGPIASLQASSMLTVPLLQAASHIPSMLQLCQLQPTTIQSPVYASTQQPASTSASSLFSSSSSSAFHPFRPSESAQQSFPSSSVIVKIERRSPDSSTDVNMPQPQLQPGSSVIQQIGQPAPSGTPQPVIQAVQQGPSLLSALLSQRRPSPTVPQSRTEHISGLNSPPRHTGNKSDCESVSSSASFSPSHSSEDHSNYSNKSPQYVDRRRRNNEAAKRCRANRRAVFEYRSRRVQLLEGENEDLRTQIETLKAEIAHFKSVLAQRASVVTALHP

## ATAAATTA (double strand) [8-mer ATAAATTA]
[1]
  binding signal (PBM E-score (-0.5 to 0.5)): 0.451

## CTTTGATC (double strand) [8-mer CTTTGATC]
[2]
  binding signal (PBM E-score (-0.5 to 0.5)): 0.451

## ACGTCATC (double strand) [8-mer ACGTCATC]
[3]
  binding signal (PBM E-score (-0.5 to 0.5)): 0.49
[4]
  binding signal (PBM E-score (-0.5 to 0.5)): 0.499
[5]
  binding signal (PBM E-score (-0.5 to 0.5)): 0.471
[6]
  binding signal (PBM E-score (-0.5 to 0.5)): 0.493

## CATCAAAG (double strand) [8-mer CATCAAAG]
[2]
  binding signal (PBM E-score (-0.5 to 0.5)): 0.463

## TAAATTTA (double strand) [8-mer TAAATTTA]
[1]
  binding signal (PBM E-score (-0.5 to 0.5)): 0.459

## TTACGAAA (double strand) [8-mer TTACGAAA]
[7]
  binding signal (PBM E-score (-0.5 to 0.5)): 0.464
[8]
  binding signal (PBM E-score (-0.5 to 0.5)): 0.463

## TGACGTCA (double strand) [8-mer TGACGTCA]
[9]
  binding signal (PBM E-score (-0.5 to 0.5)): 0.5
[3]
  binding signal (PBM E-score (-0.5 to 0.5)): 0.5
[4]
  binding signal (PBM E-score (-0.5 to 0.5)): 0.5
[6]
  binding signal (PBM E-score (-0.5 to 0.5)): 0.5

## ATCAAAGA (double strand) [8-mer ATCAAAGA]
[2]
  binding signal (PBM E-score (-0.5 to 0.5)): 0.456

## TTGCGAAA (double strand) [8-mer TTGCGAAA]
[7]
  binding signal (PBM E-score (-0.5 to 0.5)): 0.466

## TTACGTAA (double strand) [8-mer TTACGTAA]
[10]
  binding signal (PBM E-score (-0.5 to 0.5)): 0.498
[11]
  binding signal (PBM E-score (-0.5 to 0.5)): 0.496
[12]
  binding signal (PBM E-score (-0.5 to 0.5)): 0.498
[13]
  binding signal (PBM E-score (-0.5 to 0.5)): 0.478
